Consider three substances from paper PMC5391026.

One may read the stoichiometry N as a count of units in the complex or per binding partner.

For experiment [1], the target named is HvPho1ΔL78 (HvPho1 lacking the L78 insertion) (barley (Hordeum vulgare)). As to the kind of experiment: SEC; single recombinant proteins on HiLoad Superdex S-200 26/60, 25 mM HEPES pH 7.5, 50 mM NaCl; apparent molecular weight by column calibration; peak fractions also analysed by DLS at 25°C. (In general: In gel filtration, larger molecules generally elute earlier.)

Experiment [2] has as its target branching enzyme IIb (HvBeIIb) of barley endosperm extract (barley (endogenous in Hordeum vulgare 'QUENCH' endosperm)). As to the kind of experiment: SEC; total barley endosperm soluble protein on a 26/60 Superdex S-200 column; fractions analysed by immunoblot (anti-HvPho1, anti-HvBeIIb polyclonal antibodies) and native activity gels; extract with or without 1 mM ATP and 2.5 mM protein phosphatase inhibitor cocktail before SEC.

Experiment [3] concerns the target recombinant barley plastidic starch phosphorylase (HvPho1) (barley (Hordeum vulgare)). As to the kind of experiment: SEC; single recombinant proteins on HiLoad Superdex S-200 26/60, 25 mM HEPES pH 7.5, 50 mM NaCl; apparent molecular weight by column calibration; peak fractions also analysed by DLS at 25°C.
For experiment [4] the target is unchanged. As to the kind of experiment: cross-linking; recombinant HvPho1 (1 mg/ml) in 20 mM HEPES pH 7.5 treated with glutaraldehyde (0.15% v/v) for 0.5 to 30 min at 37°C; SDS-PAGE.

As for “HvPho1ΔL78 (HvPho1 lacking the L78 insertion) (enzyme)”, the stoichiometry N in experiment [1] is 2.
“branching enzyme IIb (HvBeIIb) of barley endosperm extract” showed a stoichiometry N in experiment [2] of 2.
On to “recombinant barley plastidic starch phosphorylase (HvPho1) (enzyme)”, for which the stoichiometry N in experiment [3] and in experiment [4] was 2 throughout.
